Data as given in the supplement of paper PMC10567573.

B1: MTMR15 (parent)
chain: YVKAKKSIDKDEEFAGSSPQSSKS

Variants of: B1
Experiment: protein stability index of a GFP-peptide fusion (GPS, HEK-293T) (PSI 1-6); higher = more stable
Conditions: c terminus: a fixed tail appended
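Note: lentivirally expressed fusions sorted by FACS into six bins by GFP to DsRed ratio, PSI derived from sequencing read proportions per bin multiplied by bin number.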

Protein stability index: each site, then its substitutions
S18: Q 2.93; P 3.04; C 2.75; L 2.85; T 2.64; G 3.26; R 3.13; V 3.38; I 3.66; M 2.59; Y 2.86; D 3.18; H 2.68; W 1.7; K 3.04; N 3.9; A 2.99; E 3.48; F 2.67
E12: Y 1.93; K 2.7; S 2.92; D 2.69; Q 2.98; C 2.59; M 2.93; A 2.94; W 2.27; L 2.78; G 2.8; T 3.21; R 2.6; H 2.71; I 2.41; F 2.37; V 2.3; N 2.64; P 2.68
P19: V 2.21; W 2.42; G 3.43; Y 3.02; C 3.23; T 3.5; I 2.92; F 2.71; Q 3.18; A 3.19; S 3.42; N 3.09; R 2.45; L 2.54; E 2.94; M 3.42; D 3.37; H 3.25; K 2.63
Q20: Y 2.62; K 3.24; A 2.66; N 2.96; D 3.24; G 3.27; E 3.29; R 2.73; I 2.51; S 2.9; T 3.4; C 2.82; P 2.75; L 3; F 2; V 2.84; H 3.2; M 2.92; W 3.13
K6: A 2.98; M 3.16; L 2.55; S 2.84; C 2.54; Y 2.78; W 2.7; T 3.5; Q 3.33; H 3.26; N 3.25; R 3.43; G 3.15; D 3.87; I 2.67; V 2.64; P 3.05; E 3.95; F 3.02
I8: A 3.18; Y 2.99; H 3.28; T 3.22; P 3.77; R 2.98; M 3.22; D 3.7; Q 3.3; N 3.33; L 3.07; G 3.64; F 2.81; W 3.22; K 2.98; S 3.55; V 2.97; E 3.42; C 2.83
K23: C 3.5; I 2.76; L 3; G 3.06; H 3.33; A 3.44; M 3.1; N 3.41; E 3.55; F 3.02; D 3.11
D11: L 2.46; N 2.87; H 2.92; S 3.05; K 2.64; T 2.5; V 2.72; A 2.83; G 2.88; E 2.85; W 2.31; P 2.56; M 2.56; I 2.57; Q 2.94; F 2.48; C 2.71; R 2.45; Y 2.77
K10: R 3.25; I 3.21; W 2.96; P 3.55; A 3.63; F 2.26; V 3.24; T 3.28; M 3.36; E 3.26; D 3.42; G 3.28; H 3.61; Y 2.72; S 3.25; Q 2.67; N 2.92; C 3.27; L 3.05
G16: H 2.71; Q 3.21; L 2.85; A 3.07; V 2.42; Y 2.19; R 3.06; M 3.21; S 3.64; E 3.36; W 3.45; D 3.54; I 2.86; F 2.03; P 3.36; T 2.85; N 2.98; K 3.11; C 3.22
S21: T 3.1; E 3.3; K 2.92; I 2.67; H 3.24; C 3.01; R 2.78; G 2.61; Y 2.98; W 2.41; P 2.95; D 3.31; M 3.31; V 1.22; L 2.86; N 3.25; F 3.03; A 3.23; Q 3.34
A15: E 3.31; N 2.67; C 2.64; Y 2.14; Q 3.16; K 2.9; S 2.92; F 1.91; D 3.63; M 2.44; H 3.38; G 3.45; V 3.42; P 3.06; R 2.87; T 3.08; L 3.05; I 3.25
D9: F 1.92; N 2.61; T 2.91; I 2.73; G 2.95; M 3.01; H 3.27; Q 2.76; C 2.98; L 2.76; V 2.77; A 2.92; R 3.05; K 2.45; E 2.9; Y 2.44; P 2.83; S 2.69; W 1.61
S7: V 3.13; A 3.15; T 2.96; W 2.27; C 3.33; L 2.85; N 2.98; H 3.05; P 3.41; D 2.77; K 3.38; E 3.58; Q 2.91; Y 2.08; R 3.22; I 3.01; F 3.06; M 3.33; G 3.11
E13: R 2.77; W 1.94; M 2.39; A 2.65; S 2.78; Q 3.07; D 3.49; N 2.43; C 2.05; F 2.09; I 2.05; G 2.82; L 2.74; Y 2.71; K 2.56; V 2.31; H 3.02; T 2.7; P 2.81
K5: Y 2.07
S17: D 3.03; R 2.91; A 2.8; M 2.85; H 3.07; V 2.35; K 3.21; F 1.79; E 3.59; N 2.9; T 3.29; C 3.01; G 3.17; L 2.93; Y 1.92; Q 2.93; P 2.79; W 4.48; I 2.96
F14: T 3.55; A 3.25; E 3.94; K 3.29; M 3.12; I 3.59; C 3.43; S 3.46; Q 2.89; N 3.49; V 3.61; Y 3.5; W 2.67; H 3.47; L 3.27; R 3.25; G 3.35; D 3.45; P 3.74
S22: R 3.59; W 2.27; F 2.89; Q 2.6; D 3.58; E 3.47; A 3.1; Y 2.78; M 3.06; C 3.08; G 2.97; L 2.77; V 3.36; P 3.22; T 2.87; I 3.18; K 1.92; N 2.83; H 2.77
